# Patent US20110027281A1 (Ablynx, published 2011)
# Assays:
# mouse TNF-alpha = molecular target: T1, mouse TNF-alpha (mouse, UniProt P06804 80-235); test: cell-based or functional assay
# T1 sequence (looked up): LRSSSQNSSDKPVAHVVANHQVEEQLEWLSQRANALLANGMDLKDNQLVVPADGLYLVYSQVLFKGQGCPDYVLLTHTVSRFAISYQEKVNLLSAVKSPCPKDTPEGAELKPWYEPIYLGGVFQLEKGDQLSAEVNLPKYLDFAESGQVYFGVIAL
# [1] = molecular target: T2, human Tumor Necrosis Factor alpha (human, UniProt P01375 77-233); test: cell-based or functional assay
# [2] = molecular target: T2, human Tumor Necrosis Factor alpha; test: in vitro receptor binding assay: biotinylated human TNF-alpha pre-incubated with VHH, binding to coated Enbrel
# T2 sequence (P01375 77-233 limits assumed): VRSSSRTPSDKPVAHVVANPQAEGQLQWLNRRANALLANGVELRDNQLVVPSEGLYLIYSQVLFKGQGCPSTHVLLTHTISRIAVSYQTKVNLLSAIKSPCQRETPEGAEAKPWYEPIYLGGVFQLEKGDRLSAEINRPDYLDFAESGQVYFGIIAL
binder,measurement,setting,value
VHH#m4B (VHH) VHH: QVQLQDSGGGLVQAGGSLRLSCGVSGLSFSGYTMGWFRQAPGKEREFAAAIGWNSGTTEYRNSVKGRFTISRDNAKNTVYLQMNSLKPEDTAVYYCAASPKYMTAYERSYDFWGQGTQVTVSS,"relative potency, MTT cytotoxicity assay with the murine cell line L929",mouse TNF-alpha,10 fold
BIV 3E (VHH) QVQLQDSGGGLVQAGGSLRLSCAASGGTFSSIIMAWFRQAPGKEREFVGAVSWSGGTTVYADSVLGRFEISRDSARKSVYLQMNSLKPEDTAVYYCAARPYQKYNWASASYNVWGQGTQVTVSSEPKTPKPQPAAAQVQLQDSGGGLVQAGGSLRLSCAASGGTFSSIIMAWFRQAPGKEREFVGAVSWSGGTTVYADSVLGRFEISRDSARKSVYLQMNSLKPEDTAVYYCAARPYQKYNWASASYNVWGQGTQVTVSS,"IC50, cell based assay using KYM cells (TNF-alpha 1.29 ng/ml)",[1],0.03 nM
same,"fold lower IC50 than the monomer VHH#3E, cell based assay using KYM cells",[1],400 fold
BIV#m3F (VHH) QVQLQDSGGGLVQAGGSLRLSCAASGGTFSSIIMAWFRQAPGKEREFVGAVSWSGGTTVYADSVLGRFEISRDSARKSVYLQMNSLKPEDTAVYYCAARPYQKYNWASASYNVWGQGTQVTVSSEPKTPKPQPAAAQVQLQDSGGGLVQAGGSLRLSCAASGGTFSSIIMAWFRQAPGKEREFVGAVSWSGGTTVYADSVLGRFEISRDSARKSVYLQMNSLKPEDTAVYYCAARPYQKYNWASASYNVWGQGTQVTVSS,"IC50, MTT cytotoxicity assay with L929 cells (mouse TNF-alpha 65 pg/ml)",mouse TNF-alpha,2000 nM
same,"fold change of IC50 against monovalent 3F, MTT cytotoxicity assay with L929 cells",mouse TNF-alpha,1000 fold
VHH#m3F (VHH) VHH: QVQLQDSGGGLVQAGGSLRLSCAASGGTFSSIIMAWFRQAPGKEREFVGAVSWSGGTTVYADSVLGRFEISRDSARKSVYLQMNSLKPEDTAVYYCAARPYQKYNWASASYNVWGQGTQVTVSS,"IC50, MTT cytotoxicity assay with L929 cells (mouse TNF-alpha 65 pg/ml)",mouse TNF-alpha,2 nM
same,"relative potency, MTT cytotoxicity assay with the murine cell line L929",mouse TNF-alpha,10 fold
VHH#12B (VHH) VHH: QVQLQESGGGLVQPGGSLRLSCAASGFEFENHWMYWVRQAPGKGLEWVSTVNTNGLITRYADSVKGRFTISRDNAKYTLYLQMNSLKSEDTAVYYCTKVLPPYSDDSRTNADWGQGTQVTVSS,IC50,[2],66 nM
"VHH#12B Q1E + Q5L + A74S + Y76N + K83R + P84A (VHH, Made by site-directed mutagenesis and purified on TALON; The tags are not described for the mutant; also called mutant Q1E+Q5L+A74S+Y76N+K83R+P84A; mutant 1E+Q5LA74S+Y76N+K83R+P84A) VHH: EVQLLESGGGLVQPGGSLRLSCAASGFEFENHWMYWVRQAPGKGLEWVSTVNTNGLITRYADSVKGRFTISRDNSKNTLYLQMNSLRAEDTAVYYCTKVLPPYSDDSRTNADWGQGTQVTVSS",IC50,[2],200 nM
same,fold increase of IC50 against wild type VHH#12B,[2],3 fold
TETRA 3E (VHH) QVQLQESGGGLVQPGGSLRLSCAASGRTFSDHSGYTYTIGWFRQAPGKEREFVARIYWSSGNTYYADSVKGRFAISRDIAKNTVDLTMNNLEPEDTAVYYCAARDGIPTSRSVESYNYWGQGTQVTVSSEPKTPKPQPAAAQVQLQESGGGLVQPGGSLRLSCAASGRTFSDHSGYTYTIGWFRQAPGKEREFVARIYWSSGNTYYADSVKGRFAISRDIAKNTVDLTMNNLEPEDTAVYYCAARDGIPTSRSVESYNYWGQGTQVTVSSEPKTPKPQPAAAQVQLQESGGGLVQPGGSLRLSCAASGRTFSDHSGYTYTIGWFRQAPGKEREFVARIYWSSGNTYYADSVKGRFAISRDIAKNTVDLTMNNLEPEDTAVYYCAARDGIPTSRSVESYNYWGQGTQVTVSSEPKTPKPQPAAAQVQLQESGGGLVQPGGSLRLSCAASGRTFSDHSGYTYTIGWFRQAPGKEREFVARIYWSSGNTYYADSVKGRFAISRDIAKNTVDLTMNNLEPEDTAVYYCAARDGIPTSRSVESYNYWGQGTQVTVSS,"IC50, cell based assay using KYM cells (TNF-alpha 1.29 ng/ml)",[1],6000 nM
VHH#m9E (VHH) VHH: EVQLVESGGGLVQAGGSLRLSCAASGGTLSSYITGWFRQAPGKEREFVGAVSWSSSTIVYADSVEGRFTISRDNHQNTVYLQMDSLKPEDTAVYYCAARPYQKYNWASASYNVWGQGTQVTVSS,"IC50, MTT cytotoxicity assay with L929 cells (mouse TNF-alpha 65 pg/ml)",mouse TNF-alpha,25 nM
TRI 3E (VHH) QVQLQESGGGLVQPGGSLRLSCAASGRTFSDHSGYTYTIGWFRQAPGKEREFVARIYWSSGNTYYADSVKGRFAISRDIAKNTVDLTMNNLEPEDTAVYYCAARDGIPTSRSVESYNYWGQGTQVTVSSEPKTPKPQPAAAQVQLQESGGGLVQPGGSLRLSCAASGRTFSDHSGYTYTIGWFRQAPGKEREFVARIYWSSGNTYYADSVKGRFAISRDIAKNTVDLTMNNLEPEDTAVYYCAARDGIPTSRSVESYNYWGQGTQVTVSSEPKTPKPQPAAAQVQLQESGGGLVQPGGSLRLSCAASGRTFSDHSGYTYTIGWFRQAPGKEREFVARIYWSSGNTYYADSVKGRFAISRDIAKNTVDLTMNNLEPEDTAVYYCAARDGIPTSRSVESYNYWGQGTQVTVSS,"IC50, cell based assay using KYM cells (TNF-alpha 1.29 ng/ml)",[1],20000 nM
